Molecular target: GST-eIF3h (human, UniProt O15372 1-352)
Test: pull-down

Chain of GST-eIF3h (O15372 whole entry): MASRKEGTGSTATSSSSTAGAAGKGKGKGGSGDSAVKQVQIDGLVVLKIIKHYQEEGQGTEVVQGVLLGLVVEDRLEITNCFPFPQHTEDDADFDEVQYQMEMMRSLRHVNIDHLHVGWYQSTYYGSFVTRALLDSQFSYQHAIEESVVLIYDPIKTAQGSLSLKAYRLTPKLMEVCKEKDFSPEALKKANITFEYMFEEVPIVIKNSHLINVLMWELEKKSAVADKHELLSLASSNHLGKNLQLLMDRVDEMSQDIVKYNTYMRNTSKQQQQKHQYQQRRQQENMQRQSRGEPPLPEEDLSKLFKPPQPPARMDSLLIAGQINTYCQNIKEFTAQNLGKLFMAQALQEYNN

B1: His-METTL3 1-200 amino acid fragment (domain or fragment)
chain: MSDTWSSIQAHKKQLDSLRERLQRRRKQDSGHLDLRNPEAALSPTFRSDSPVPTAPTSGGPKPSTASAVPELATDPELEKKLLHHLSDLALTLPTDAVSICLAISTPDAPATQDGVESLLQKFAAQELIEVKRGLLQDDAHPTLVTYADHSKLSAMMGAVAEKKGPGEVAGTVTGQKRRAEQDSTTVAAFASSLVSGLNS
- binding result: binds
